Data as given in patent US20250051463A1 (AstraZeneca / MedImmune, published 2025).

Legend:
[1] = target: T1, cynomolgus IL3Rα (CD123), sample in solution for biolayer interferometry (cynomolgus); assay: kinetic binding curves, antibody on the sensor, cyIL3Ra in solution; the sheet prints Temperature: 25 C
T1 construct: Soluble analyte in the Octet assay; construct not described; also called cynomolgus CD123 sample

[2] = target: T2, human IL3Rα (CD123), sample in solution for biolayer interferometry (human, UniProt P26951 19-305, limits assumed); assay: biolayer interferometry (Octet RED384), antibody on AHC sensor, hIL3-Rα 10-0.16 µg/mL in solution, 1:1 fit
T2 construct: Soluble analyte in the Octet assay; also called hIL3-Rα; hIL3Rα
T2 sequence (looked up): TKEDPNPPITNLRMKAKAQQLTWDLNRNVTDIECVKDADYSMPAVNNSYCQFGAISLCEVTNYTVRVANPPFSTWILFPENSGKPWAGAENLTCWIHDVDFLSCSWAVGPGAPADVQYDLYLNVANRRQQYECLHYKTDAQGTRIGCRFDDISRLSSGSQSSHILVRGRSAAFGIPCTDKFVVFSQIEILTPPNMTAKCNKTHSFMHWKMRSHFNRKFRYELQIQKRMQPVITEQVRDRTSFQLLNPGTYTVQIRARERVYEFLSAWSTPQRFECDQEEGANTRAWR
Description: Biolayer interferometry binding experiments were performed using an Octet RED384 instrument, with all measurements made at 30° C. AHC biosensor probes were soaked in kinetics buffer (PBS pH 7.2+0.02% Tween-20, 0.1% BSA, 0.05% sodium azide) for 10 minutes, followed by baseline signal measurement in kinetics buffer for 60 seconds. […] For binding to hIL3-Rα, the antibody-loaded biosensor tips were dipped in binding buffer for 60 sec (baseline), followed by immersion in a solution containing dilutions of hIL3-Rα (10-0.16 μg/mL) for 300 sec (association), and subsequent immersion in kinetics buffer for 400 sec (dissociation). For binding to hIL5-Rα and GM-CSFRa, all steps were the same except the concentration of antigen was increased (50-1.56 μg/mL) and the dissociation step was decreased to 300 sec. The signal from a buffer only reference sample was subtracted, and all curves were fit with a 1:1 binding model to determine KD values.

[3] = target: T3, human CD123 (IL3Rα) on cells (human, UniProt P26951 19-378); assay: flow cytometry on THP-1 CD123(+dox) cells, Geo MFI
T3 construct: whole, on cells; also called human IL3Rα expressed on 293 cells; AD293hIL3Rα
T3 sequence (P26951 19-378): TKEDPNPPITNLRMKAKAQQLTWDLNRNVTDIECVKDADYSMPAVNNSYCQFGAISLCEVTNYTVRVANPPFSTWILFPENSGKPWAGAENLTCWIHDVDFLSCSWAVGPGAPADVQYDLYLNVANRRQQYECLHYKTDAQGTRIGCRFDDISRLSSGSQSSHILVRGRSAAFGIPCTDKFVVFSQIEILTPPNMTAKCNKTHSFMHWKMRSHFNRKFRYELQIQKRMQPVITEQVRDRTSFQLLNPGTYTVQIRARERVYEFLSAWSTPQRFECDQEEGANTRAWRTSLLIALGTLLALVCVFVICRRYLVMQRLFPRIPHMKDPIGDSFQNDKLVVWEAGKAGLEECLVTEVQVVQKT
Description: THP-1 cells were transfected with an IL3Rα expression construct under the control of a doxycycline inducible promoter. THP-1 cells were maintained in DMEM containing 10% heat-inactivated fetal bovine serum (FBS) and were cultured in a humidified atmosphere of 5% CO₂ and at a temperature of 37° C. […] (Dox) inducible cells were stimulated with 1 μg/ml dox overnight before use. […] On the day of plating, cells were spun down at 1500 rpm for 3 minutes, counted, and resuspended to a final concentration of 1×10⁶ cells/ml. Two hundred μl of cells were plated in wells of 96 well microtiter plates. The plates were spun down at 1500 rpm for 3 minutes and flicked to remove media. One hundred μl of FACS buffer (PBS+2% FBS) was added to each well. […] The antibody concentration started at 12 μg/ml followed by six 1:3 dilutions (no antibody control was also run). The plates were incubated at 4° C. for 30 minutes. Following incubation, the plates were washed 3 times by spinning down at 1500 rpm for 3 minutes, flicked and 100 μl of FACs buffer was added. Alexa 647 secondary antibody (goat anti-human IgG (H+L)) was added at 1:1000 dilution in 100 μl followed by 30 minute 4° C. incubation. The plates were washed as above. […] Cells were analyzed on a BD Bioscience LSRII by collecting 10,000 cells. Flow data was analyzed in FlowJo software.

[4] = target: T3, human CD123 (IL3Rα) on cells; assay: flow cytometry on EOL-1 cells, geometric mean
Description: On the day of plating, cells were spun down at 1500 rpm for 3 minutes, counted, and resuspended to a final concentration of 1×10⁶ cells/ml. […] Plates were incubated at 4° C. for 30 minutes. Following incubation plates were washed 3 times by spinning down at 1500 rpm for 3 minutes, flicked and 100 μl of FACS buffer were added. […] Flow data was analyzed in FlowJo software.

[5] = target: T4, mouse IL3Rα expressed on 293 cells (mouse, UniProt P26952 17-396); assay: flow cytometry with Alexa 647 labelled antibody on Ad293 cells expressing mouse IL3Ra, geometric mean
T4 construct: whole, on cells; also called mouse CD123
T4 sequence (looked up): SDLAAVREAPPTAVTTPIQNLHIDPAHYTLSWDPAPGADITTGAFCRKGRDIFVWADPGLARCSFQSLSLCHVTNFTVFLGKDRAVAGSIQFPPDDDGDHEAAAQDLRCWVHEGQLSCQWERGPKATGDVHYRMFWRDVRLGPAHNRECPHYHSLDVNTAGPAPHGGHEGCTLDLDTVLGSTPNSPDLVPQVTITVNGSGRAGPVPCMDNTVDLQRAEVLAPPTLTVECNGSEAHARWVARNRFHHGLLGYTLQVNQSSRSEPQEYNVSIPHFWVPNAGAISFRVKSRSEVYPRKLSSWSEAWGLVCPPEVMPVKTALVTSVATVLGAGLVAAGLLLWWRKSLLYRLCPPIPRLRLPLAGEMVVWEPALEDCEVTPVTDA
Description: AD293 cells were maintained in DMEM (Dulbecco's Modified Eagle Medium) containing 10% heat-inactivated fetal bovine serum (FBS) and were cultured in a humidified atmosphere of 5% CO2 and at a temperature of 37° C. On the day of plating, cells were spun down at 1500 rpm for 3 minutes, counted, and resuspended to a final concentration of 0.3×10⁶ cells/ml. Two hundred μl of cells were plated to wells of 96 well microtiter plate. Plates were spun down at 1500 rpm for 3 minutes and flicked to remove media. One hundred μl of FACs buffer (PBS [Phosphate Buffer Saline]+2% FBS) was added to the wells. Plates were then spun again as above followed by addition of primary antibody in 100 μl of FACS buffer. […] Antibody concentration started at 12 μg/ml followed by six 1:3 dilutions (no antibody control was also run). Plates were incubated at 4° C. for 30 minutes. Following incubation plates were washed 3 times by spinning down at 1500 rpm for 3 minutes, flicked and 100 μl of FACS buffer were added. Following a final wash, 100 μl of FACS buffer containing live/dead DAPI (diamidino-2-phenylindole) stain was added to the plates. […] Flow data was analyzed in FlowJo software.

Kd [1]: 0.656 nM
Kd [2]: 0.31 nM
EC50 (read off the curve) [3]: ~0.3 µg/mL
EC50 (read off the curve) [4]: ~0.04 µg/mL
B1: HT12-GL antibody (antibody, human IgG1, kappa, V domains shown)
VH: EVQLLESGGGLVQPGGSLRLSCAASGFTFNIYAMTWVRQAPGKGLEWVSGISAGGDSTYYADSVKGRFTISRDNSKNTLYLQMNSLRAEDTAVYYCAKDRGYYYGMDVWGQGTTVTVSS
VL: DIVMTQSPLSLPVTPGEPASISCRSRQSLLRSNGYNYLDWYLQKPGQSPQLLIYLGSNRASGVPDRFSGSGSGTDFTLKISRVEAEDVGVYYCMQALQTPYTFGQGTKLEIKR
notes: elsewhere unlabeled with a secondary antibody; also called HT12-GL mAb; CD123 mAb
binding result [5]: no binding (tested: log 1.1 ug/ml (about 12 ug/ml))
